The values that follow come from patent US20130171644, “COINCIDENCE DETECTION” (KING'S COLLEGE LONDON, published 2013).

Data set [1] concerns the target T1, RXR-DBD-EKE-MYC (UniProt P19793 SEQ:260-356).
T1 chain: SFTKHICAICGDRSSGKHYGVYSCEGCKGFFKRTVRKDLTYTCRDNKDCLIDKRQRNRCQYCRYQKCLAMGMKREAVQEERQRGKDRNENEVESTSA
The data set can be described thus: ELONA; RXR alone; monomeric RXR does not bind DR5. The settings on record: tags: GST, label: 5'-biotin. On the procedure:
(§1) Method: 96-well microtiter plates were coated with a-EE (Y) and a-MYC (Y) at 10 ng/μl in 100 mM NaHCO3/Na2CO3 (pH 9.6). Excess antibody was removed and wells were blocked using 3% BSA. The biodetectors were then captured in the well as indicated in figures followed by the addition of 50 μl/well of biotinylated-DR5 DNA sequence (BIO-DR5, 5 pmol/μl). Control for specificity is the non-consensus oligo (BIO-non consensus) and un-biotinylated DR5 (competitor) to establish signal specificity. Washes were performed at each step to assure the removal of unbound reagents. Streptavidin-HRP was incubated for 30 min at RT, and after three washes, binding was assessed using TMB substrate. Absorbance was measured at 450 nm. Samples are in duplicate.
(§2) ELISA assays were carried out by coating 500 ng of α-MYC and α-EE antibodies diluted in 100 mM bicarbonate buffer (50 ul/well, pH 9.6). Antibodies were coated for 2 h at RT in a microtiter plate (MaxiSorp, Nunc). The wells were then washed once with 200 ul of PBS buffer (pH 7.3) and incubated 0/N at 4° C. with 200 ul of blocking buffer (PBS+3% BSA). The biodetectors where then added at the concentration of 0.7 pmol/well (50 ul/well in 150 mM NaCl, 50 mM Tris pH 7.6, 10% glycerol and 1% BSA) and incubated for 1 h at RT. […]

Data set [2] deals with RXR-Grb2SH2-MYC + RAR-PLCgNSH2-HA-EE heterodimer. The data set can be described thus: ELONA; antibody- or bis-phosphopeptide-captured; peptide assay in 0.8xSSC, RT. The settings on record: tags: GST, MYC-HIS (RXR), label: 5'-biotin.
Data set [3] has as its target RXR-Grb2SH2-MYC. The data set is described as follows: ELONA; single reagent alone; combined RXR/RAR required for signal. The settings on record: tags: GST, MYC-HIS; label: 5'-biotin.
Protocol: (§3) Streptavidin was coated for 2 h at RT in a microtiter plate (MaxiSorp, Nunc). The wells were then washed once with 200 ul of 0.8× sodium citrate buffer (0.8×SSC: 120 mM NaCl, 12 mM sodium citrate) and incubated 0/N at 4° C. with 200 μl of blocking buffer (3% BSA in 0.8×SSC). The appropriate biotinylated phospho-peptide/s were then added at the concentration of 1.2 pmol/well in 0.8×SSC with additionally 1% BSA and incubated for 1 h at RT. After washing three times with 0.8×SSC containing 0.1% Tween 20 (0.8×SSC/Tw) a blocking step was carried out using biotin at the concentration of 40 ng/well (160 pmol/well in 0.8×SSC buffer). Biotin was incubated for 10 min at RT. The wells were then washed three times with 200 ul of 0.8×SSC containing 0.1% Tween 20 and the biodetectors were then added at the concentration of 2 pmol/well (50 ul/well in 0.8×SSC buffer, 1% BSA).
(§4) The biodetectors were incubated for 1 h at RT. After washing three times with 200 ul of 0.8×SSC/Tw, 50 μl of biotinylated-DR5 DNA sequence (Biot-DR5, 5 pmol/well in 0.8×SSC/Tw buffer, 1% BSA) were added to the wells and plates were incubated for 1 h at RT. After washing three times with 0.8×SSC/Tw, each well was incubated with Streptavidin-HRP conjugated diluted 1:3,000 in 0.8×SSC/Tw containing 1% BSA. […] The reaction was stopped by adding 100 ul of 2 M H₂SO₄ and the optical density (O.D.) was read at the wavelength of 450 nm.
In data set [4] the target is T2, RAR-PLCgNSH2-HA-EE.
T2 chain: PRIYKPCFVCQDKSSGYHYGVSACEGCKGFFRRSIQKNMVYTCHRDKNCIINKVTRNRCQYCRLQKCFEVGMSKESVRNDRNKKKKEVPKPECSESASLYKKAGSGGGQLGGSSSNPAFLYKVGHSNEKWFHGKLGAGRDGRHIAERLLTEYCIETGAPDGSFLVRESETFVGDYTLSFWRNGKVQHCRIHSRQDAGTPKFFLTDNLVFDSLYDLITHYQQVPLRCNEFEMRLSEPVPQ
Described as above. To be noted: tags: GST, HA-EE-HIS; label: 5'-biotin.
Protocol: as §3, §4

Data set [5] deals with T3, RXR-DBD-EKE-MYC + RAR-DBD-KEK-S-EE heterodimer (UniProt P19793; SEQ:260-356,SEQ:260-363).
T3 chain 1: T1 chain
T3 chain 2: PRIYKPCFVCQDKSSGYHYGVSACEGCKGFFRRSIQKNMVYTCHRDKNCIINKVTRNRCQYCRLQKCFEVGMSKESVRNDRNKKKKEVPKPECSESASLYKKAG
The data set is described as follows: ELONA; antibody-captured detectors, streptavidin-HRP readout, RT. The settings on record: tags: GST, label: 5'-biotin. On the procedure: as §1, §2

The target in data set [6] is T4, RAR-DBD-KEK-S-EE.
T4 chain: T3 chain 2
The data set is described as follows: ELONA; RAR alone; monomeric RAR does not bind DR5. The settings on record: tags: GST, label: 5'-biotin. On the procedure: as §1, §2

B1: BIO-DR5 (dsDNA)
DNA 1: TGGTATCTAGTTATTGCTCAGCGTGCCAGGTCACCGAAAGGTCAGAG
DNA 2: CTCTGACCTTTCGGTGACCTGGCACGCTGAGCAATAACTAGATACCA
As for B1, the binding result is recorded as “no binding” in data set [1]; “binds” in data set [2]; “no binding” in data set [3]; “no binding” in data set [4]; “binds” in data set [5]; “no binding” in data set [6].
